{"source": "paper PMC2175090", "biological_target": "polymerized MTs purified from the bovine brain (bovine) (UniProt Q6B856)", "assay": "co-sedimentation"}
{"substance": "GST-M1 fusion protein encompassing ACF7's M1 domain (domain or fragment)", "values": [{"measurement": "Kd", "value": 6, "unit": "µM"}]}
